Literature values as cited in PMC9213791.

Molecular target: cardiac troponin C N-terminal domain (cNTnC) N-terminal domain (Homo sapiens) (UniProt P63316)
Sequence (P63316 1-89): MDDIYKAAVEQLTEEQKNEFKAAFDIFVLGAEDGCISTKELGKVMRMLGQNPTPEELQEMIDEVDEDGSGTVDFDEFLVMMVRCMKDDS

- Kd: 154 µM
Substance: cardiac troponin I switch peptide switch peptide (from UniProt P19429)
